First the molecules themselves.
B1: SEQ ID NO 29 (antibody, V domains shown)
VH: EVQLLESGGGLVQPGGSLRLSCAASGFTFSSYAMNWVRQAPGKGLEWVSGIIGSGGSTYYADSVKGRFTISRDNSKNTLYLQMNSLRAEDTAVYYCVKDWNTTMITERGQGTLVTVSS
notes: UniAb: CH1 deleted, no light chain; HEK supernatant
B2: SEQ ID NO 43 (antibody, V domains shown)
VH: B1 VH with R19T, S31N, G56A, S57T, Y80N, V93I
notes: as for B1
B3: SEQ ID NO 28 (antibody, V domains shown)
VH: B1 VH with I52T, T69S, Y80D
notes: as for B1
B4: SEQ ID NO 51 (antibody, V domains shown)
VH: B1 VH with S31N, I52T, A88V
notes: as for B1
B5: SEQ ID NO 39 (antibody, V domains shown)
VH: B1 VH with S31N, N35S, T69S
notes: as for B1
B6: SEQ ID NO 21 (antibody, V domains shown)
VH: B1 VH with G16R, S30T, S31N, I52S, S54G
notes: as for B1
B7: SEQ ID NO 42 (antibody, V domains shown)
VH: B1 VH with S31N
notes: as for B1
B8: SEQ ID NO 44 (antibody, V domains shown)
VH: B1 VH with S31N, N35S
notes: as for B1
B9: SEQ ID NO 27 (antibody, V domains shown)
VH: B1 VH with I51L, I52T, S54N, G56D, L79V
notes: as for B1
B10: SEQ ID NO 22 (antibody, V domains shown)
VH: B1 VH with N35T, I52T, G53E, S54N, Y80D
notes: as for B1
B11: SEQ ID NO 23 (antibody, V domains shown)
VH: B1 VH with N35S, I52T, S54D, Y59F
notes: as for B1
B12: SEQ ID NO 41 (antibody, V domains shown)
VH: B1 VH with L11V, G16R, S31N
notes: as for B1
B13: SEQ ID NO 49 (antibody, V domains shown)
VH: B1 VH with N35T, V37I, I52V, S54G, S57T, T58S, K65R
notes: as for B1
B14: SEQ ID NO 37 (antibody, V domains shown)
VH: B1 VH with S30T, S31N
notes: as for B1
B15: SEQ ID NO 53 (antibody, V domains shown)
VH: B1 VH with S31N, A88V
notes: as for B1
B16: SEQ ID NO 38 (antibody, V domains shown)
VH: B1 VH with L11V, G16R, N35S
notes: as for B1
B17: SEQ ID NO 20 (antibody, V domains shown)
VH: B1 VH with V12A, V37I, I52S, L79V
notes: as for B1
B18: SEQ ID NO 35 (antibody, V domains shown)
VH: B1 VH with N35S, I52T, T69S, Y80D
notes: as for B1
B19: SEQ ID NO 36 (antibody, V domains shown)
VH: B1 VH with S31N, K43N, I51L, I52T, L79V
notes: as for B1
B20: SEQ ID NO 45 (antibody, V domains shown)
VH: B1 VH with L11V, G16R
notes: as for B1
B21: SEQ ID NO 50 (antibody, V domains shown)
VH: B1 VH with N35S, S57T, Y80N, V93I
notes: as for B1
B22: SEQ ID NO 48 (antibody, V domains shown)
VH: B1 VH with S31N, N35T, V37I, I52T, S54D, Y59F
notes: as for B1
B23: SEQ ID NO 30 (antibody, V domains shown)
VH: B1 VH with L79V
notes: as for B1
B24: SEQ ID NO 31 (antibody, V domains shown)
VH: B1 VH with I52T, G56D, D62A, T69S, K76Q, Y80D
notes: as for B1
B25: SEQ ID NO 24 (antibody, V domains shown)
VH: B1 VH with N35S, T69S, Y80D
notes: as for B1
B26: SEQ ID NO 33 (antibody, V domains shown)
VH: B1 VH with S31N, N35T, V37I, I52T, S54D, Y59F, T69S, Y80D
notes: as for B1
B27: SEQ ID NO 34 (antibody, V domains shown)
VH: B1 VH with S31R, V37I, I52V, S57N, T69S
notes: as for B1
B28: SEQ ID NO 40 (antibody, V domains shown)
VH: B1 VH with N35S, A88V
notes: as for B1
B29: SEQ ID NO 46 (antibody, V domains shown)
VH: B1 VH with N35S, Y59F
notes: as for B1
B30: SEQ ID NO 47 (antibody, V domains shown)
VH: B1 VH with G16E, S31N, I52V, S54G, S57T, T58S, K65R
notes: as for B1
B31: SEQ ID NO 32 (antibody, V domains shown)
VH: B1 VH with N35S, I51L, I52T, G56D, S75D, L79V
notes: as for B1
B32: SEQ ID NO 52 (antibody, V domains shown)
VH: B1 VH with I52V, S54G, S57T, T58S, K65R
notes: as for B1

Substitutions are numbered along the chain they refer to.

For the assay, the target named is T1, human BCMA (B-Cell Maturation Antigen) on NCI-H929 cells (human, UniProt Q02223 1-184).
T1 construct: whole, on cells; Endogenous BCMA on NCI-H929 myeloma cells; also called TNFRSF17; H929 cells (BCMA+, lambda-)
T1 sequence (looked up): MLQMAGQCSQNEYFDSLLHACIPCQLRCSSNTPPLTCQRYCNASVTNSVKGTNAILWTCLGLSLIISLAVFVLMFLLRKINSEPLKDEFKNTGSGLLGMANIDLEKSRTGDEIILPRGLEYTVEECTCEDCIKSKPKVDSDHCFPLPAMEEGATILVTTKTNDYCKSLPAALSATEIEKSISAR
The assay is described as follows: flow cytometry, HEK supernatants on NCI-H929 cells (BCMA+). On the procedure:
Supernatants of all antibodies were also tested by flow cytometry for binding to RPMI-8226 cells (BCMA+, lambda+) and H929 cells (BCMA+, lambda−). The samples were measured by flow cytometry using a Guava easyCyte 8HT instrument from EMD Millipore and analyzed using guavaSoft. Bound antibodies were detected with goat anti-human IgG F(ab')_2 conjugated to PE (Southern Biotech 2042-09). All antibodies were diluted in PBS with 1% BSA. Positive staining was determined by comparison to staining with a human IgG1 isotype control. The NCI-H929 and RPMI-8226 cell lines are human multiple myeloma lines expressing human BCMA, which were obtained from the American Type Culture Collection (ATCC) and cultured according to ATCC recommendations.
On to B1, for which the binding result is listed as “binds”.
Take B2: the binding result was “binds”.
For B3 the value was “binds”; for B4, “binds”.
For B5 the value was “binds”.
The entry for B6 is “binds”; for B7 it is “binds”; for B8 it is “binds”.
As for B9, the binding result is listed as “binds”.
For B10 the value was “binds”.
As for B11, the binding result was “binds”.
For the molecule B12, the binding result is “binds”.
The entry for B13 is “binds”; for B14 it is “binds”.
For B15 the value was “binds”.
For B16 the value was “binds”; for B17, “binds”; for B18, “binds”.
Consider B19, for which the binding result is recorded as “binds”.
The entry for B20 is “binds”.
The entry for B21 is “binds”; for B22 it is “binds”.
For B23 the value was “binds”; for B24, “binds”; for B25, “binds”.
In the case of B26, the binding result is given as “binds”.
The entry for B27 is “binds”; for B28 it is “binds”.
Regarding B29, the binding result was “binds”.
The entry for B30 is “binds”; for B31 it is “binds”.
For B32 the value was “binds”.

The values are drawn from US11434299 (TENEOBIO, dated 2022).
